Source: the domain aggregation screens of Martell et al. (2025)

assay: soluble fraction after stress (log2 fold change); higher = more stays soluble; pooled small domains, quantitative proteomics; conditions: stress: 75 degC
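Note: 20 min heating vs room temperature control held 20 min.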

| Sequence | soluble fraction (log2) |
| --- | --- |
| HMAKRPRFEDVIKEINTEIQKRKGKWNLTILSWMDFDDVAQVIRIHIYRKWHLYDPSKPLGPWLNR | -0.339 |
| HMAKSETAKIKATPYGWLRVRDTPSLNGAEIARVNSGDEYKVLEKETGWIKIKVSDTVEGWVSDAYIELS | -0.21 |
| HMAKSKYETHVLPNLDKIIKWAKAGATAKEIAANLHIAYSTFRKYLDEGQEGDERYAALSAAFAQA | -0.0762 |
| HMALDLNEDEKLLVELIEKAGGTAGLGELKEASGLSGKKWDKTTKNLSKEGLIKVEKNESGLWVHLT | 0.0861 |
| HMALDLPVKRVKGKEYYYYKVKKGESLYGISKHLGLPLDSIVKSNPSVADGVRKGDMLLFPLEEYT | -0.702 |
| HMALKQADFDFIRQMIQQRAAIVLDDNKHYFVESRLGPVVEETGSKSLDQLIDQLRSSSNSLLQQKVTEAI | -0.372 |
| HMALLSDEERIATVFAARLGGYSHQEIYKLLQDRFGPSLPAAYSEKSVLTDLQTALSQVPSL | -0.814 |
| HMALPEHIEPFLRGLGQALAEGDSYEDVQERLLRAYPYLDSTEFQTALARVIFISDLWGRLN | -1.85 |
| HMALPPPELRGATGEAVTALRPAGIALIQGKRYDVLAEGGEWIAAGAAVRVRDIRNGHLIVSDA | -0.268 |
| HMALRFMAYGRINGTNVHFRTGASASTASLGRYSRGTEFGVYDKIGGWYRVRLLSTGQEGYVYSRYLTLTG | -2.53 |
| HMALSGTVQNFAGGIMILIFRPFKTGDYIEALGYFGKVSEVNIVSTKLRTFDNKTIILPNGALSNGNIQNY | -0.772 |
| HMALSSQQIKDMQSWYGTKADGIWGSKSTTAAGGRDAGAAYSLYSSNKGRYSSYTDYMSYGGG | 0.341 |
| HMALSTRERMSFVLEVLKEKEFIPFVDLFSPEEGRAGVVVTFLALMELMKDSLIEIVQTKNFGEIHVRARL | -0.316 |
| HMALTQEQLGQRLQDARKSVALTQQEVAEDLGLSRESLAQIEAGSRSVNSLEIVRLARLYGRSLSSILLE | -0.893 |
| HMALYSEQVSEIEKALMSLPPKYQLVMLLLYAEDLKYEQIAEILDEPIGTVKTKIHRARKILKERF | -0.147 |
| HMAMDSGELEAIVDRLISEHPDDWAALTAGDDRERKKKSGFFVGEVMKATRGQADGRAVIELLASRSA | -0.0771 |
| HMAMDYTVVHSDRRTIAIQIQRDGRVVVRAPYAATAEDIRRVVDSHRDWVEKTVRRQQEQLAAS | -0.985 |
| HMAMNITQRHQEILAVIKQEKHITVSEISKLLGVSEVTIRKDFNYLEEKNLIYRHHGGASLNN | -2.78 |
| HMAMPQPVARALHRLGQDISAARRMRRLSQEDLAQRIGTSLSTVRRMEDGYPGTALHTFLRALHML | -0.552 |

| Sequence | soluble fraction (log2) |
| --- | --- |
| HMAMSDFDALSNRISTLSQGRASAVRMKDGIVSLVLDIGGLSAEERKAMTAAIEGEGRGYPSVTQVRILET | -0.15 |
| HMANAGKFDSDMGEKINFPGNRVSLTPSELEAARELAAIMGDRFFSQLIPTTSKVTVTEMLQSLK | 0.745 |
| HMANGTVKWFNTTKGFGFIAPETGGKDVFVHISAVERSGLTGLADDQKVTFDVEAGRDGRESAVNLAL | 0.0695 |
| HMANKTVPNVSGKTVAEARAIIENQSLQVGEEKEEYSDSVAEGYIIRTNPTAGSQKKEQSKIDLVVSKG | 0.128 |
| HMANLDSLIKKVGQYAKDKQSISVDGIKKDLSIDKDMVKEALAELLKIGVVDKPDEAGQYKVIM | 0.51 |
| HMANPMFAEIKKVQKQLNEMGYQAGPADGLWGNKTENAVKLLLSDNNLKWDGTFDQNEIKIIEEIFLSND | -0.241 |
| HMANPRLEYFLSNITPDWNEFSPELKNQLLIENADPYKLEQYILQVSPDMYIEEQNAPGTVRQMAGDITG | 0.137 |
| HMANSANARKSLVSKLIAGGKIASQSDLVKALKKQGIVVTQGTASRDLEDIGAIRVRNSEGEIVYALT | 0.0457 |
| HMANSDEEVLNKISTKAPTFNELINKIKEFDDTKEINDIWLDVYRYYITDEEYKEIAKKVITGLTYTNQ | -0.386 |
| HMANSLLVTAQAGGQKLFNFLKRSLHAENNEIHRWIRTGQVRINKKRTKAFDIVHENDEIRIPPFALNR | -0.444 |
| HMANSREIPKLAGIEQEEAVKQLLDLDLKPVIEEITDDDTDAGDVVRTDPAAGEHVAVDTEITVFISIG | -0.987 |
| HMANVQLAKNLKTLRKKYNYTQQDVSTFLNITRQAYSHYEQALREPDLNTLVHLSRFYQVTLDELI | -4.33 |
| HMANYHDIAADLRSKINHGFYEEEKKLPKQSELAADYQTSRVTIQKALNILQMEGIIYGKKGTGTFIRDSY | -0.32 |
| HMANYTVNAYNNGGTGGSVNMRSGPSTNDGIVVRVPHGATVTGTKSGTWSYMTYNTYTGYMMSVYLDEQS | -1.57 |
| HMAPAPYLVKVTANKLNIRSGPGTNYKIQGAITDKGTYTIVDTQGRWGKLKSGAGWIYLNYTKK | -1.98 |
| HMAPASADQLIDQLNEKVKAKDDKGVAALLTAAQTKMAELAQKDPKEAQAYVAKLQQWMQSNSENIKAALK | 0.439 |
| HMAPAYELTEEETKIIEILKANENIDLNELKSQAALSGKKWDKSMKNLAKYNLTKVTVDGDAKTVAYLA | 0.164 |
| HMAPELSGEKLWDAQDVAMFLRVKPTTVWSYVSRDGFPAPVSQAGRAGMWSEPLVVQWYLSRPG | 0.154 |
| HMAPEPFILSVDADGKYYIDDLEKTKQEILIYATALYQEKPTTDFLVRGDKSAAYNDVLQAMVVLKE | 0.325 |
